Laboratory results as given in IntAct's records for PubMed 24561201.

B1: ATP-sensitive inward rectifier potassium channel 10 (Homo sapiens), P78508 (parent)
chain: MTSVAKVYYSQTTQTESRPLMGPGIRRRRVLTKDGRSNVRMEHIADKRFLYLKDLWTTFIDMQWRYKLLLFSATFAGTWFLFGVVWYLVAVAHGDLLELDPPANHTPCVVQVHTLTGAFLFSLESQTTIGYGFRYISEECPLAIVLLIAQLVLTTILEIFITGTFLAKIARPKKRAETIRFSQHAVVASHNGKPCLMIRVANMRKSLLIGCQVTGKLLQTHQTKEGENIRLNQVNVTFQVDTASDSPFLILPLTFYHVVDETSPLKDLPLRSGEGDFELVLILSGTVESTSATCQVRTSYLPEEILWGYEFTPAISLSASGKYIADFSLFDQVVKVASPSGLRDSTVRYGDPEKLKLEESLREQAEKEGSALSVRISNV

Variants of: B1
Details: with MAGI1, A0A8I3NPD4
Chain of MAGI1, A0A8I3NPD4 (A0A8I3NPD4 entry or part of it): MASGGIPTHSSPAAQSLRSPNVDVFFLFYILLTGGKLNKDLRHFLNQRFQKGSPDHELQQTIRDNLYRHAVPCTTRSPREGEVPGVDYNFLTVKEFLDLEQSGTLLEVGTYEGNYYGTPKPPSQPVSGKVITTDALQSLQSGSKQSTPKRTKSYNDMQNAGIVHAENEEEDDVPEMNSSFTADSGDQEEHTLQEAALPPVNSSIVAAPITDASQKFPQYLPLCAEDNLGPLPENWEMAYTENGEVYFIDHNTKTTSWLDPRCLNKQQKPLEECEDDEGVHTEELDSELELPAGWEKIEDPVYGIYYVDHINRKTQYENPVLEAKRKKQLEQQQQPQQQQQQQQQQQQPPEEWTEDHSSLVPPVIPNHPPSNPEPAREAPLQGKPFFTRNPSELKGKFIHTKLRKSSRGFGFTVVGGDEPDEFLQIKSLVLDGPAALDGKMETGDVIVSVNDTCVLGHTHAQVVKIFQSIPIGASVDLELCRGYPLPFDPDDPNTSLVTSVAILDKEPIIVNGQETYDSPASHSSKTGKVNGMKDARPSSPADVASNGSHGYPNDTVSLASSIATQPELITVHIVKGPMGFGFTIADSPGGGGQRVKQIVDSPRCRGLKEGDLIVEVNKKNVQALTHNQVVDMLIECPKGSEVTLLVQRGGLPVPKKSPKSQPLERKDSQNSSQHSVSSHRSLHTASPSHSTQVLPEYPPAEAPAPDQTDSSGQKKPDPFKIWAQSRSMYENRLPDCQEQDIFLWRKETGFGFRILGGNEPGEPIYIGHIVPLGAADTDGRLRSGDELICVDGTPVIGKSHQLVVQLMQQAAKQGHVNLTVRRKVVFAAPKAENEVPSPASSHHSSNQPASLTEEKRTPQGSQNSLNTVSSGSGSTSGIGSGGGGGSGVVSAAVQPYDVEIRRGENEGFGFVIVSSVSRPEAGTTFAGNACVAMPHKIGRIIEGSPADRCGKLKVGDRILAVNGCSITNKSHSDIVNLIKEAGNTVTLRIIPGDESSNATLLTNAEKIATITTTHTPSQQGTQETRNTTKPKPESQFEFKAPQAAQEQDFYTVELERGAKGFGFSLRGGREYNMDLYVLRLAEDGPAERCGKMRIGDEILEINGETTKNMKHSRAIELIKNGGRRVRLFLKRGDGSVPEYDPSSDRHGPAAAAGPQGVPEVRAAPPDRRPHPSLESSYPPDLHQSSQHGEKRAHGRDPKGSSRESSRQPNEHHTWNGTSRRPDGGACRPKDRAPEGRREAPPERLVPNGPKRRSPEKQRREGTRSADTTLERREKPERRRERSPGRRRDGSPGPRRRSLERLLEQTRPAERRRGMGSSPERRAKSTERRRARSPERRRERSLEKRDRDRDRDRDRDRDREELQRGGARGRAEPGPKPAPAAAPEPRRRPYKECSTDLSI

Variant | effect of a mutation on the interaction
A167V | decreasing interaction
